{
  "source": "paper PMC1764712",
  "about": "“Recruitment and Activation of RSK2 by HIV-1 Tat” (PLoS ONE, 2007)",
  "key": {"[1]": {"biological_target": "Endogenous RSK2 of Cos7 cells (African green monkey (endogenous in Cos7))"}, "[2]": {"biological_target": "T1, Full-length human recombinant RSK2 isolated from insect cells (human, UniProt P51812 1-740)", "T1 construct": "Human ribosomal S6 protein kinase 2 (RSK2), full length; also called full-length recombinant RSK2; source: bought: Upstate Biotechnology (isolated from insect cells)", "T1 sequence (P51812 whole entry)": "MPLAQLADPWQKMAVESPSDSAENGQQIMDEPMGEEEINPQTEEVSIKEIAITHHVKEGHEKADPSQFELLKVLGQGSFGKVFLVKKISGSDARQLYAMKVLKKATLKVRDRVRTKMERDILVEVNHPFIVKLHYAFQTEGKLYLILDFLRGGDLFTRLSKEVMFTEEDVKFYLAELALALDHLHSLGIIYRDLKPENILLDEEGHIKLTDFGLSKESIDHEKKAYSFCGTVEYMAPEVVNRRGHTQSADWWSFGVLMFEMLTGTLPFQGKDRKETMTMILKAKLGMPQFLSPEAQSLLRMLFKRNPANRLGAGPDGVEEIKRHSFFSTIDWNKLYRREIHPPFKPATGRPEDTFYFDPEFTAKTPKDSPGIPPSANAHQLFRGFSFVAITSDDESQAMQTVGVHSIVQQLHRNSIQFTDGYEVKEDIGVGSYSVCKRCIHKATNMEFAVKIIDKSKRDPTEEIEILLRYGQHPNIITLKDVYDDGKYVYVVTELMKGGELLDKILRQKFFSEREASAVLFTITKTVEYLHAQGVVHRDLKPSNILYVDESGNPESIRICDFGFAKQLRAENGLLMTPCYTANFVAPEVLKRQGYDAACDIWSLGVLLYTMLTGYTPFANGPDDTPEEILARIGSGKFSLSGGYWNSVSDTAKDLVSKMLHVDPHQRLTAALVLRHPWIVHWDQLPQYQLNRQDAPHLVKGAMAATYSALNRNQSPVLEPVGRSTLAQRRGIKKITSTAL", "test": "pull-down; GST proteins immobilised on glutathione-sepharose, incubated with 200 ng human recombinant RSK2; binding buffer 20 mM Hepes pH 7.9, 1% Triton, 0.5% NP-40, 200 mM KCl; washes with 1 M KCl; western blot with α-RSK2", "details": "both partners purified"}},
  "data": [
    {"molecule": "Full-length Tat (101 amino acids) bearing a C-terminal FLAG tag (natural protein)", "values": [
      {"measurement": "S6 peptide phosphorylation assay of endogenous RSK2 immunoprecipitated from Cos7 cells transfected with Tat", "setting": "[1]", "value": 3, "unit": "fold"}
    ]},
    {"molecule": "GST-Tat 1–86 (natural protein, HIV-1 Tat amino acids 1-86; also called GST-Tat (amino acids 1–86); recombinant Tat (amino acids 1–86) fused to the C-terminus of GST; source: E. coli BL21, purified (glutathione-sepharose); not shown: GST, N-terminal, kept) MEPVDPRLEPWKHPGSQPKTACTNCYCKKCCFHCQVCFITKALGISYGRKKRRQRRRAHQNSQTHQASLSKQPTSQPRGDPTGPKE", "values": [
      {"measurement": "binding result", "setting": "[2]", "value": "binds"}
    ]}
  ]
}
